Source: US20050042607A1, “Parkin protein as ubiquitin ligase” (priority 2000, published 2005)
Entries after “also recorded” stand apart in the source; their conditions may differ.

T1: Ubc3 (Homo sapiens, UniProt P49427)
T1 construct: expressed in transfected cells; host or cells: HEK293
T1 sequence (P49427 1-236): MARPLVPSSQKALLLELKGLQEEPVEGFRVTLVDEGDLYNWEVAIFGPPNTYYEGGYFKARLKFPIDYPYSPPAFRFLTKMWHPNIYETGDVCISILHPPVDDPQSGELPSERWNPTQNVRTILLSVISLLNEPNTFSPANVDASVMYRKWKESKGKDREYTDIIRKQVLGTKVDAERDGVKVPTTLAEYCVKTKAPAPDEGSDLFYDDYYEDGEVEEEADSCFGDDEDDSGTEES


How the values were obtained:
UbcH7 = biological target: T2, UbcH7 (Homo sapiens, UniProt P68036); assay: Co-immunoprecipitation of Myc-Parkin with FLAG-UbcH7 expressed in HEK293 cells; assay type: binding; settings: 48 hours after transfection, IP with antiMyc antibody
T2 construct: expressed in transfected cells; host or cells: HEK293
T2 sequence (P68036 whole entry): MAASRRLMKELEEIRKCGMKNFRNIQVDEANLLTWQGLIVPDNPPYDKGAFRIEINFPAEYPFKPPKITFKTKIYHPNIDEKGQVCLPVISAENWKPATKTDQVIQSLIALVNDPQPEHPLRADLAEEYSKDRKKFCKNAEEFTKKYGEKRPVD
Protocol: (§1) For preparing pcDNA3.1(+)Myc and pcDNA3.1(+)FLAG vectors, oligo DNA encoding N-terminal Myc and FLAG epitopes was ligated at KpnI/BamHI domain of pcDNA3.1(+) (Invitrogen). After the amplification of wild type parkin or N-terminal-deficient variant, Ubc2(HHR6B), UbcH8 and cDNA of ubiquitin with a suitable primer, they were ligated in BamHI domain of the vector. The C-terminal-deficient variant and missense variant of parkin were prepared by introducing a variation into pcDNA3.1(+)Myc-Parkin by using a Quik Change domain specific variation inducing kit (Stratagene) according to a manual. pCAGGS-Ubc3 was already reported [Iwai K. et al., Proc. Natl. Acad. Sci. USA 96, 12436-12441 (1999)].
(§2) pCGN-Ubc4 and other pcDNA3.1(+)FLAG-Ubc were prepared from human liver cDNA library by an ordinary method. Ubc used was obtained from human beings in all the cases. Human fetal kidney 293 (HEK293) cells and human dopamigenergic neuroblastoma SH-SY5Y cells were cultured in DMEM containing 10% bovine fetal serum, 10 μg/ml streptomycin and 100 U/ml penicillin.
The transfection was carried out by using FuGENE6 transfection reagent according to the producer (Boehringer-Mannheim)'s manual. […]
(§3) The following test was conducted to find whether Parkin concerns the ubiquitin pathway or not. To find whether the interaction between Parkin and each of various E2 enzymes occurs or not, Myc-labeled parkin was expressed together with various E2 enzymes labeled with FLAG, HA or His at different domains in HEK293 cells, and the interaction of them was detected by the immunoprecipitation The results are shown in FIG. 1.
Concretely, pcDNA3.1(+)Myc-Parkin ([…]) was transfected in HEK293 cells simultaneously with various expression vectors encoding FLAG-, His- or HA-Ubc in an amount shown in the parentheses in FIG. 1. […] The cell extracts (upper panel in FIG. 1) and immunoprecipitates (middle and lower panels in FIG. 1) were analyzed by the immunoblotting with various antibodies as shown in FIG. 1. […]

UbcH8 = biological target: T3, UbcH8 (Homo sapiens, UniProt O14933); assay: Co-immunoprecipitation of Myc-Parkin with UbcH8 expressed in HEK293 cells; assay type: binding; settings: 48 hours after transfection, IP with antiMyc antibody
T3 construct: expressed in transfected cells; host or cells: HEK293
T3 sequence (O14933 whole entry): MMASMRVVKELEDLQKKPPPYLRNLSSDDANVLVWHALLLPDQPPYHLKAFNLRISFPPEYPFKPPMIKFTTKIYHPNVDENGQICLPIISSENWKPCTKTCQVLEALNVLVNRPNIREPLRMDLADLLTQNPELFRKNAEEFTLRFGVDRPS
Protocol: as §1
(§4) pCGN-Ubc4 and other pcDNA3.1(+)FLAG-Ubc were prepared from human liver cDNA library by an ordinary method. Ubc used was obtained from human beings in all the cases. […]
as §3, with “1. […]” for “1.”

Ubc2 = biological target: T4, Ubc2 (Homo sapiens, UniProt P63146); assay: Co-immunoprecipitation of Myc-Parkin with Ubc2 expressed in HEK293 cells; assay type: binding; settings: IP with antiMyc antibody
T4 construct: expressed in transfected cells; host or cells: HEK293
T4 sequence (P63146 whole entry): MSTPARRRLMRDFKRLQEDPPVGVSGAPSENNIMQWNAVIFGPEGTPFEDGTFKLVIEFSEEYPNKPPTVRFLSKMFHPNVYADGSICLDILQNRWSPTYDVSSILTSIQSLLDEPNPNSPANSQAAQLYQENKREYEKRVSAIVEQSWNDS
Protocol: as §1, §4
as §3, with “1. […]” for “1.”

Ubc3 = biological target: T1, Ubc3; assay: Co-immunoprecipitation of Myc-Parkin with Ubc3 expressed in HEK293 cells; assay type: binding; settings: IP with antiMyc antibody
Protocol: as §1, §4
as §3, with “1. […]” for “1.”

Ubc4 = assay: Co-immunoprecipitation of Myc-Parkin with Ubc4 expressed in HEK293 cells; assay type: binding, human; settings: IP with antiMyc antibody
Protocol: as §1, §4
as §3, with “1. […]” for “1.”

UbcH5A-C = assay: Co-immunoprecipitation of Myc-Parkin with UbcH5A-C expressed in HEK293 cells; assay type: binding, human; settings: IP with antiMyc antibody
Protocol: as §1, §4
as §3, with “1. […]” for “1.”

UbcH6 = biological target: T5, UbcH6 (Homo sapiens, UniProt P51965); assay: Co-immunoprecipitation of Myc-Parkin with UbcH6 expressed in HEK293 cells; assay type: binding; settings: IP with antiMyc antibody
T5 construct: expressed in transfected cells; host or cells: HEK293
T5 sequence (P51965 whole entry): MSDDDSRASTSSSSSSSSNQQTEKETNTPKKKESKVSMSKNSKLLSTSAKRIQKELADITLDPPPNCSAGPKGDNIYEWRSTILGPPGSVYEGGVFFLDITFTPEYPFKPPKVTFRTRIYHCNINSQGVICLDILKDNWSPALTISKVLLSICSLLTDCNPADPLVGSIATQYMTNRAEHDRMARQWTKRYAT
Protocol: as §1, §4
as §3, with “1. […]” for “1.”

[1] = tested on: human dopamigenergic neuroblastoma SH-SY5Y cells; assay: Association of FLAG-ubiquitinated cell protein with Myc-Parkin in SH-SY5Y cells (antiMyc immunoprecipitation, antiFLAG immunoblotting); assay type: cell-based
Protocol: as §1, §2
(§5) The transfection was carried out by using FuGENE6 transfection reagent according to the producer (Boehringer-Mannheim)'s manual. The cells were treated with MG132 (Cbz-Leu-Leu-Leu-aldehyde) (Peptide Institute, Inc., Osaka, Japan) having a final concentration of 50 μM.
(§6) The immunoprecipitation was conducted with rabbit polyclonal antiMyc antibodies (A-14) (Santa Cruz Biotechnology) as previously reported [Suzuki H. et al., Biochem. Biophys. Res. Commun. 256, 127-132 (1999)]. The immunoblotting was conducted with biotin linked mouse monoclonal antiFLAG(M2) antibody (SIGMA), mouse monoclonal antiMyc antibody (9E10) (Santa Cruz Biotechnology), mouse monoclonal antiHA antibody (HA.11) (Berkeley Antibody Company) or mouse monoclonal antiHis antibody (RGS.His) (QIAGEN). Streptoavidin/horseradish peroxidase complex (Amersham Pharmacia Biotech) was used for detecting biotin-linked antiFLAG(M2) antibody.
(§7) At first, 10 μg of pcDNA3.1(+)Myc-parkin and 10 μg of pcDNA3.1(+)FLAG-ubiquitin vector were simultaneously transfected into SH-SY5Y cells. […]

HEK293 fetal kidney cell = assay: Association of FLAG-ubiquitinated cell protein with Myc-Parkin in HEK293 cells; assay type: cell-based, human; settings: HEK293 fetal kidney cell extract, same analysis as in SH-SY5Y
Protocol: as §2, §5, §6, §7

[2] = SH-SY5Y cells treated with proteasome inhibitor MG132 (50 μM)

association (co-immunoprecipitation) with UbcH7 (UbcH7) | association (co-immunoprecipitation) with Ubc2 (Ubc2) | association (co-immunoprecipitation) with Ubc3 (Ubc3) | association (co-immunoprecipitation) with UbcH6 (UbcH6) | Molecule | association (co-immunoprecipitation) with UbcH8 (UbcH8) | association (co-immunoprecipitation) with Ubc4 (Ubc4) | association (co-immunoprecipitation) with UbcH5A-C (UbcH5A-C) | ubiquitinated protein bands associated with Parkin [1, 2] | ubiquitinated protein bands associated with Parkin ([1]; SH-SY5Y cells, no treatment with inhibitor) | ubiquitinated protein bands associated with Parkin (HEK293 fetal kidney cell)
immunoprecipitated together with Parkin | no detectable linkage | no detectable linkage | no detectable linkage | Parkin: Protein of 465 amino acids encoded by parkin, with N-terminal ubiquitin-like domain and C-terminal RING-box; used Myc-labeled (protein, UniProt O60260 1-465, looked up, Myc tag, Protein of 465 amino acids encoded by parkin, with N-terminal ubiquitin-like domain and C-terminal RING-box; used Myc-labeled) E3 ubiquitin-protein ligase …: MIVFVRFNSSHGFPVEVDSDTSIFQLKEVVAKRQGVPADQLRVIFAGKELRNDWTVQNCDLDQQSIVHIVQRPWRKGQEMNATGGDDPRNAAGGCEREPQSLTRVDLSSSVLPGDSVGLAVILHTDSRKDSPPAGSPAGRSIYNSFYVYCKGPCQRVQPGKLRVQCSTCRQATLTLTQGPSCWDDVLIPNRMSGECQSPHCPGTSAEFFFKCGAHPTSDKETSVALHLIATNSRNITCITCTDVRSPVLVFQCNSRHVICLDCFHLYCVTRLNDRQFVHDPQLGYSLPCVAGCPNSLIKELHHFRILGEEQYNRYQQYGAEECVLQMGGVLCPRPGCGAGLLPEPDQRKVTCEGGNGLGCGFAFCRECKEAYHEGECSAVFEASGTTTQAYRVDERAAEQARWEAASKETIKKTTKPCPRCHVPVEKNGGCMHMKCPQPQCRLEWCWNCGCEWNRVCMGDHWFDV | not detected under ordinary conditions; also recorded: UbcH8 immunoprecipitation was weak | no detectable linkage | no detectable linkage | ubiquitinated bands including high-molecular ubiquitinated proteins, were detected | no ubiquitinated band was found | no ubiquitinated band linked with Parkin was observed
could be linked with UbcH7 | – | – | – | Parkin^R42P: Missense Parkin variant from AR-JP patient, No. 42 arginine replaced with proline (ubiquitin-like domain variant) (protein, UniProt O60260 1-465, looked up, variant R42P) E3 ubiquitin-protein ligase …: MIVFVRFNSSHGFPVEVDSDTSIFQLKEVVAKRQGVPADQLPVIFAGKELRNDWTVQNCDLDQQSIVHIVQRPWRKGQEMNATGGDDPRNAAGGCEREPQSLTRVDLSSSVLPGDSVGLAVILHTDSRKDSPPAGSPAGRSIYNSFYVYCKGPCQRVQPGKLRVQCSTCRQATLTLTQGPSCWDDVLIPNRMSGECQSPHCPGTSAEFFFKCGAHPTSDKETSVALHLIATNSRNITCITCTDVRSPVLVFQCNSRHVICLDCFHLYCVTRLNDRQFVHDPQLGYSLPCVAGCPNSLIKELHHFRILGEEQYNRYQQYGAEECVLQMGGVLCPRPGCGAGLLPEPDQRKVTCEGGNGLGCGFAFCRECKEAYHEGECSAVFEASGTTTQAYRVDERAAEQARWEAASKETIKKTTKPCPRCHVPVEKNGGCMHMKCPQPQCRLEWCWNCGCEWNRVCMGDHWFDV | – | – | – | substantially completely lost the association with the ubiquitinated protein | – | –
did not interact with UbcH7 | – | – | – | Parkin^T240R: Missense Parkin variant from AR-JP patient, No. 240 threonine replaced with arginine (RING1 domain) (protein, UniProt O60260 1-465, looked up, variant T240R) E3 ubiquitin-protein ligase …: MIVFVRFNSSHGFPVEVDSDTSIFQLKEVVAKRQGVPADQLRVIFAGKELRNDWTVQNCDLDQQSIVHIVQRPWRKGQEMNATGGDDPRNAAGGCEREPQSLTRVDLSSSVLPGDSVGLAVILHTDSRKDSPPAGSPAGRSIYNSFYVYCKGPCQRVQPGKLRVQCSTCRQATLTLTQGPSCWDDVLIPNRMSGECQSPHCPGTSAEFFFKCGAHPTSDKETSVALHLIATNSRNITCIRCTDVRSPVLVFQCNSRHVICLDCFHLYCVTRLNDRQFVHDPQLGYSLPCVAGCPNSLIKELHHFRILGEEQYNRYQQYGAEECVLQMGGVLCPRPGCGAGLLPEPDQRKVTCEGGNGLGCGFAFCRECKEAYHEGECSAVFEASGTTTQAYRVDERAAEQARWEAASKETIKKTTKPCPRCHVPVEKNGGCMHMKCPQPQCRLEWCWNCGCEWNRVCMGDHWFDV | – | – | – | – | – | –
